Laboratory results taken from PMC5045167, “STN1 OB Fold Mutation Alters DNA Binding and Affects Selective Aspects of CST Function”.

Key:
CST(STN1-OBM) [1] = molecular target: T1, CST(STN1-OBM) (human, UniProt Q2NKJ3;Q9H668;Q86WV5 1-1217;1-368;1-123, W89A;R139L;Y141A); test: EMSA; up to 20 nM CST; 25 mM Tris pH 8.0, 1 mM DTT, 150 mM NaCl; EMSA 0.1 nM DNA, 30 min RT; filter binding 0.01 nM DNA, 18 h 4 C; crosslinking 20 nM CST, 2 nM DNA, UVA on ice; conditions: protein: recombinant; tags: N-terminal FLAG-CTC1, His-STN1-OBM; TEN1 untagged; copies: 1;1;1; label: 32P
T1 sequence (Q2NKJ3 whole entry, chain 1 of 3): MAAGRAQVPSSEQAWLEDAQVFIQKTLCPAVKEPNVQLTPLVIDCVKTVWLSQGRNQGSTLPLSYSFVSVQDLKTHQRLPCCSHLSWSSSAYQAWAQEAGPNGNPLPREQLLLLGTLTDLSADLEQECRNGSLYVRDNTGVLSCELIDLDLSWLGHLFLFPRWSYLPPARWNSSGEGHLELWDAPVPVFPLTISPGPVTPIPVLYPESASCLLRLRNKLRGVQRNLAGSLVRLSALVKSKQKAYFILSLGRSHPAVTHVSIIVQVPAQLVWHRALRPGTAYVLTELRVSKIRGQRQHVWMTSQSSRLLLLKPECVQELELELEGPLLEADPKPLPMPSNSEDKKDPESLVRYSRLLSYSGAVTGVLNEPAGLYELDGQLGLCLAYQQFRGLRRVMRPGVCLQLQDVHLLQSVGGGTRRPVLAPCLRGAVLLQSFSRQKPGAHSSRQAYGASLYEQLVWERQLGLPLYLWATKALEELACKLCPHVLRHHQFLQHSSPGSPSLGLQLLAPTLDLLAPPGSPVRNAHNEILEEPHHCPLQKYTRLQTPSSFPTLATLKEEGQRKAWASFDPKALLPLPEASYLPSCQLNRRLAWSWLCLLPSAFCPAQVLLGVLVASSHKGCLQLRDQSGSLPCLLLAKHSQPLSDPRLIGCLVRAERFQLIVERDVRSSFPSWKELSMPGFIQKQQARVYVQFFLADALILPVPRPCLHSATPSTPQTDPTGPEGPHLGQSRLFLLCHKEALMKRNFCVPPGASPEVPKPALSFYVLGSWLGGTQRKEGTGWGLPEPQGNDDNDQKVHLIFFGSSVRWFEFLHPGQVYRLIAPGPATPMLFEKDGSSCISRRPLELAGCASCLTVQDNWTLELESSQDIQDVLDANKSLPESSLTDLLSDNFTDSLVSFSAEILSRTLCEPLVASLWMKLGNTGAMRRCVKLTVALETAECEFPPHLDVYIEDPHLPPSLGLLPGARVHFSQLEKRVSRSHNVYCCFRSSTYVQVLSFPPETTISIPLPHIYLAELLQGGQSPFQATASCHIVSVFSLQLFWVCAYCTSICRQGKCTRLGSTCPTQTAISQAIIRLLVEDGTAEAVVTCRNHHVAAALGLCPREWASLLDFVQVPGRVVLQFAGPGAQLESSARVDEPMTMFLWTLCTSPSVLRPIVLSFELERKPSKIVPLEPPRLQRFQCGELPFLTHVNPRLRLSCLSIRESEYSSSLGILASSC
T1 sequence (Q9H668 whole entry W89A/R139L/Y141A, chain 2 of 3): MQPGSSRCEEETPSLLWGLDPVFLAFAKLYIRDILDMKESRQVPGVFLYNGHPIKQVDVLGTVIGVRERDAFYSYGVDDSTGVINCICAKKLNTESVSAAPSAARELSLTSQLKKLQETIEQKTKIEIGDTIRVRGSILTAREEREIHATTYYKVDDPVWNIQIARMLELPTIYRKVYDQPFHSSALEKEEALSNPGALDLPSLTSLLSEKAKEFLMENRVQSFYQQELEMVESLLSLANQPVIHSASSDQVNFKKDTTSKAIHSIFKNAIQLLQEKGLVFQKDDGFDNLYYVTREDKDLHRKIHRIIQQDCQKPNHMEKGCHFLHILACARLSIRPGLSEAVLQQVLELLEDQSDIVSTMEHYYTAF
T1 sequence (Q86WV5 whole entry, chain 3 of 3): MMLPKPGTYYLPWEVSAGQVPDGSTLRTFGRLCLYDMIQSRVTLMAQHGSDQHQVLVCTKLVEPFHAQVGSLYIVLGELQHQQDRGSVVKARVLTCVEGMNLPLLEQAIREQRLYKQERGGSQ

CST(WT) (CTC1-STN1-TEN1) [2] = molecular target: T2, CST(WT) (CTC1-STN1-TEN1) (human, UniProt Q2NKJ3;Q9H668;Q86WV5 1-1217;1-368;1-123); test: as above; conditions: protein: recombinant; tags: N-terminal FLAG-CTC1, His-STN1; TEN1 untagged (Methods says all tags N-terminal); copies: 1;1;1; label: 32P
T2 sequence (Q2NKJ3 whole entry, chain 1 of 3): as the sequence (Q2NKJ3 whole entry, chain 1 of 3) above
T2 sequence (Q9H668 whole entry, chain 2 of 3): as the sequence (Q9H668 whole entry W89A/R139L/Y141A, chain 2 of 3) above, with A89W, L139R, A141Y counted along it
T2 sequence (Q86WV5 whole entry, chain 3 of 3): as the sequence (Q86WV5 whole entry, chain 3 of 3) above

CST(WT) (CTC1-STN1-TEN1) [3] = molecular target: T2, CST(WT) (CTC1-STN1-TEN1); test: filter binding; Kd,app measured, value only in Fig 6C; 25 mM Tris pH 8.0, 1 mM DTT, 150 mM NaCl; EMSA 0.1 nM DNA, 30 min RT; filter binding 0.01 nM DNA, 18 h 4 C; crosslinking 20 nM CST, 2 nM DNA, UVA on ice; conditions: protein: recombinant; tags: N-terminal FLAG-CTC1, His-STN1; TEN1 untagged (Methods says all tags N-terminal); copies: 1;1;1; label: 32P
CST(WT) (CTC1-STN1-TEN1) [4] = molecular target: T2, CST(WT) (CTC1-STN1-TEN1); test: EMSA; 25 mM Tris pH 8.0, 1 mM DTT, 150 mM NaCl; EMSA 0.1 nM DNA, 30 min RT; filter binding 0.01 nM DNA, 18 h 4 C; crosslinking 20 nM CST, 2 nM DNA, UVA on ice; conditions: protein: recombinant; tags: N-terminal FLAG-CTC1, His-STN1; TEN1 untagged (Methods says all tags N-terminal); copies: 1;1;1; label: 32P
CST(STN1-OBM) [5] = molecular target: T1, CST(STN1-OBM); test: EMSA; similar affinity to CST(WT); 25 mM Tris pH 8.0, 1 mM DTT, 150 mM NaCl; EMSA 0.1 nM DNA, 30 min RT; filter binding 0.01 nM DNA, 18 h 4 C; crosslinking 20 nM CST, 2 nM DNA, UVA on ice; conditions: protein: recombinant; tags: N-terminal FLAG-CTC1, His-STN1-OBM; TEN1 untagged; copies: 1;1;1; label: 32P
CST(WT) (CTC1-STN1-TEN1) [6] = molecular target: T2, CST(WT) (CTC1-STN1-TEN1); test: UV crosslinking; CTC1 and STN1 crosslinked; 25 mM Tris pH 8.0, 1 mM DTT, 150 mM NaCl; EMSA 0.1 nM DNA, 30 min RT; filter binding 0.01 nM DNA, 18 h 4 C; crosslinking 20 nM CST, 2 nM DNA, UVA on ice; conditions: protein: recombinant; tags: N-terminal FLAG-CTC1, His-STN1; TEN1 untagged (Methods says all tags N-terminal); copies: 1;1;1; label: 32P
CST(WT) (CTC1-STN1-TEN1) [7] = molecular target: T2, CST(WT) (CTC1-STN1-TEN1); test: UV crosslinking; CTC1 and (less efficiently) STN1 crosslinked; 25 mM Tris pH 8.0, 1 mM DTT, 150 mM NaCl; EMSA 0.1 nM DNA, 30 min RT; filter binding 0.01 nM DNA, 18 h 4 C; crosslinking 20 nM CST, 2 nM DNA, UVA on ice; conditions: protein: recombinant; tags: N-terminal FLAG-CTC1, His-STN1; TEN1 untagged (Methods says all tags N-terminal); copies: 1;1;1; label: 32P
CST(WT) (CTC1-STN1-TEN1) [8] = molecular target: T2, CST(WT) (CTC1-STN1-TEN1); test: UV crosslinking; CTC1, STN1 and TEN1 crosslinked; 25 mM Tris pH 8.0, 1 mM DTT, 150 mM NaCl; EMSA 0.1 nM DNA, 30 min RT; filter binding 0.01 nM DNA, 18 h 4 C; crosslinking 20 nM CST, 2 nM DNA, UVA on ice; conditions: protein: recombinant; tags: N-terminal FLAG-CTC1, His-STN1; TEN1 untagged (Methods says all tags N-terminal); copies: 1;1;1; label: 32P
CST(WT) (CTC1-STN1-TEN1) [9] = molecular target: T2, CST(WT) (CTC1-STN1-TEN1); test: UV crosslinking; only CTC1 reproducibly crosslinked; 25 mM Tris pH 8.0, 1 mM DTT, 150 mM NaCl; EMSA 0.1 nM DNA, 30 min RT; filter binding 0.01 nM DNA, 18 h 4 C; crosslinking 20 nM CST, 2 nM DNA, UVA on ice; conditions: protein: recombinant; tags: N-terminal FLAG-CTC1, His-STN1; TEN1 untagged (Methods says all tags N-terminal); copies: 1;1;1; label: 32P

**Q.** Does AGCGTATCCGTTCAGTTG (ssDNA) [NonTel-18] bind (CST(STN1-OBM) [1])?
**A.** no binding

**Q.** Does AGCGTATCCGTTCAGTTG (ssDNA) [NonTel-18] bind (CST(WT) (CTC1-STN1-TEN1) [2])?
**A.** no binding

**Q.** Does GGTTAGGGTTAGGGTTAG (ssDNA) [TelG-18] bind (CST(WT) (CTC1-STN1-TEN1) [3])?
**A.** binds

**Q.** Does AGCGTATCCGTTCAGTTGAGCGTATCCGTTCAGTTG (ssDNA) [NonTel-36] bind (CST(WT) (CTC1-STN1-TEN1) [4])?
**A.** binds

**Q.** What does the source list for AGCGTATCCGTTCAGTTGAGCGTATCCGTTCAGTTGAGCGTATCCGTT (ssDNA) [NonTel-48]?
**A.** binding result (CST(STN1-OBM) [5]): binds; binding result (CST(WT) (CTC1-STN1-TEN1) [4]): binds

**Q.** Does GGTTAGGGTTAGGGTTAG (ssDNA, 4-thiothymidine at position 16 (third nt from 3' end)) [3'-s4T TelG-18] bind (CST(WT) (CTC1-STN1-TEN1) [6])?
**A.** binds

**Q.** Does GGTTAGGGTTAGGGTTAG (ssDNA, 4-thiothymidine at position 3 (third nt from 5' end)) [5'-s4T TelG-18] bind (CST(WT) (CTC1-STN1-TEN1) [7])?
**A.** binds

**Q.** Does GGTTAGGGTTAGGGTTAGGGTTAGGGTTAGGGTTAGGGTTAGGGTTAG (ssDNA) [TelG-48] bind (CST(STN1-OBM) [5])?
**A.** binds

**Q.** Does GGTTAGGGTTAGGGTTAGGGTTAGGGTTAGGGTTAGGGTTAGGGTTAG (ssDNA) [TelG-48] bind (CST(WT) (CTC1-STN1-TEN1) [4])?
**A.** binds

**Q.** Does GGTTAGGGTTAGGGTTAGGGTTAGGGTTAGGGTTAGGGTTAGGGTTAG (ssDNA, 4-thiothymidine at position 46 (third nt from 3' end)) [3'-s4T TelG-48] bind (CST(WT) (CTC1-STN1-TEN1) [8])?
**A.** binds

**Q.** Does GGTTAGGGTTAGGGTTAGGGTTAGGGTTAGGGTTAGGGTTAGGGTTAG (ssDNA, 4-thiothymidine at position 3 (third nt from 5' end)) [5'-s4T TelG-48] bind (CST(WT) (CTC1-STN1-TEN1) [9])?
**A.** binds
